This is an account of results in patent publication US20240034772A1 (published 2024).

To fix the notation:
B1: MPE8 (antibody, V domains shown)
VH: EVQLVESGGGLVKPGGSLRLSCAASGFTFSSYSMNWVRQAPGKGLEWVSSISASSSYSDYADSAKGRFTISRDNAKTSLFLQMNSLRAEDTAIYFCARARATGYSSITPYFDIWGQGTLVTVSS
VL: QSVVTQPPSVSGAPGQRVTISCTGSSSNIGAGYDVHWYQQLPGTAPKLLIYDNNNRPSGVPDRFSASKSGTSASLAITGLQAEDEADYYCQSYDRSLSGVFGTGTKVTVL
B2: MPE33_S36A (antibody, V domains shown)
VH: QVQLQESGPGLVKPSQTLSLTCTVSGDSISNGAYCWNWVRQPAGKGLEWIGRIYPIGNTNYNPSLKSRVTISLDTSKNQFSLKLASVTAADTAVYYCAREARIFEGYYYYYYGLDVWGQGTTVTVSS
VL: EIVLTQSPATLSLSPGERATLSCRASQTISSYLAWYQQKPGQAPRLLISDVSKRATGIPARFSGSGSGTDFTLTISSLEPEDFAVYYCHQRSNWDTFGQGTKLEIK
B3: MPE33_C38S (antibody, V domains shown)
VH: QVQLQESGPGLVKPSQTLSLTCTVSGDSISNGSYSWNWVRQPAGKGLEWIGRIYPIGNTNYNPSLKSRVTISLDTSKNQFSLKLASVTAADTAVYYCAREARIFEGYYYYYYGLDVWGQGTTVTVSS
VL: EIVLTQSPATLSLSPGERATLSCRASQTISSYLAWYQQKPGQAPRLLISDVSKRATGIPARFSGSGSGTDFTLTISSLEPEDFAVYYCHQRSNWDTFGQGTKLEIK
B4: MPE33_N34S (antibody, V domains shown)
VH: QVQLQESGPGLVKPSQTLSLTCTVSGDSISSGSYCWNWVRQPAGKGLEWIGRIYPIGNTNYNPSLKSRVTISLDTSKNQFSLKLASVTAADTAVYYCAREARIFEGYYYYYYGLDVWGQGTTVTVSS
VL: EIVLTQSPATLSLSPGERATLSCRASQTISSYLAWYQQKPGQAPRLLISDVSKRATGIPARFSGSGSGTDFTLTISSLEPEDFAVYYCHQRSNWDTFGQGTKLEIK
B5: MPE33_N34S_C38Y (antibody, V domains shown)
VH: QVQLQESGPGLVKPSQTLSLTCTVSGDSISSGSYYWNWVRQPAGKGLEWIGRIYPIGNTNYNPSLKSRVTISLDTSKNQFSLKLASVTAADTAVYYCAREARIFEGYYYYYYGLDVWGQGTTVTVSS
VL: EIVLTQSPATLSLSPGERATLSCRASQTISSYLAWYQQKPGQAPRLLISDVSKRATGIPARFSGSGSGTDFTLTISSLEPEDFAVYYCHQRSNWDTFGQGTKLEIK
B6: MPE33_C38A (antibody, V domains shown)
VH: QVQLQESGPGLVKPSQTLSLTCTVSGDSISNGSYAWNWVRQPAGKGLEWIGRIYPIGNTNYNPSLKSRVTISLDTSKNQFSLKLASVTAADTAVYYCAREARIFEGYYYYYYGLDVWGQGTTVTVSS
VL: EIVLTQSPATLSLSPGERATLSCRASQTISSYLAWYQQKPGQAPRLLISDVSKRATGIPARFSGSGSGTDFTLTISSLEPEDFAVYYCHQRSNWDTFGQGTKLEIK
B7: MPE33_C38Y (antibody, V domains shown)
VH: QVQLQESGPGLVKPSQTLSLTCTVSGDSISNGSYYWNWVRQPAGKGLEWIGRIYPIGNTNYNPSLKSRVTISLDTSKNQFSLKLASVTAADTAVYYCAREARIFEGYYYYYYGLDVWGQGTTVTVSS
VL: EIVLTQSPATLSLSPGERATLSCRASQTISSYLAWYQQKPGQAPRLLISDVSKRATGIPARFSGSGSGTDFTLTISSLEPEDFAVYYCHQRSNWDTFGQGTKLEIK
B8: MPE33_N34Q (antibody, V domains shown)
VH: QVQLQESGPGLVKPSQTLSLTCTVSGDSISQGSYCWNWVRQPAGKGLEWIGRIYPIGNTNYNPSLKSRVTISLDTSKNQFSLKLASVTAADTAVYYCAREARIFEGYYYYYYGLDVWGQGTTVTVSS
VL: EIVLTQSPATLSLSPGERATLSCRASQTISSYLAWYQQKPGQAPRLLISDVSKRATGIPARFSGSGSGTDFTLTISSLEPEDFAVYYCHQRSNWDTFGQGTKLEIK

For one assay, the target named is POST (human metapneumovirus (hMPV), strain …, UniProt Q6WB98 19-489). Nature of the assay: ELISA; post-fusion F.
POST, sequence (Q6WB98 19-489): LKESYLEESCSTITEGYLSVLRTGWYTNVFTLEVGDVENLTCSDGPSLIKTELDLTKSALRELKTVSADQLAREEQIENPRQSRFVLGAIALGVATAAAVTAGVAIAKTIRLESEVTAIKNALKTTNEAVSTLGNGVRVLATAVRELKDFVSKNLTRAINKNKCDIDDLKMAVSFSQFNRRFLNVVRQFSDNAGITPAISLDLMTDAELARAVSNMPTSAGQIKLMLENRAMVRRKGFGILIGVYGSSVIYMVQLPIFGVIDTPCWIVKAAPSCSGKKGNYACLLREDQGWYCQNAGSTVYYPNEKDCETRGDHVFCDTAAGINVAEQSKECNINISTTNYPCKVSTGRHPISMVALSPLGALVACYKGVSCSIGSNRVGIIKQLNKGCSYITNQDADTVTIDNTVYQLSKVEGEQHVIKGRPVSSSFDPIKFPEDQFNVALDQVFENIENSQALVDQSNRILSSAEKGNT
B1 showed an EC50 of 769000 ng/mL.

For the next assay, the target named is MPV pre-fusion F protein (conformationally stabilized, CAN97-83 MPV strain) (human metapneumovirus (hMPV), strain …, UniProt Q6WB98 19-489). Nature of the assay: ELISA.
MPV pre-fusion F protein (conformationally stabilized, CAN97-83 MPV strain), sequence (Q6WB98 19-489): as above
For the molecule B2, a half-maximal response (EC50) required 2.31 ng/mL. In turn, B3 displayed a concentration giving a half-maximal response (EC50) of 2.39 ng/mL. Molecule B4 showed an EC50 of 1.56 ng/mL.

As for B5, the midpoint of the response, the EC50, lay at 2.87 ng/mL.

In turn, B6 had a concentration giving a half-maximal response (EC50) of 1.51 ng/mL.

Take B7: the EC50 was 2.5 ng/mL. Consider B8, for which the 50% effective concentration (EC50) stood at 1.96 ng/mL.

In a further assay the target is PRE (human metapneumovirus (hMPV), strain …, UniProt Q6WB98 19-489). Nature of the assay: ELISA; pre-fusion F.
PRE, sequence (Q6WB98 19-489): as above
B1 registered a concentration giving a half-maximal response (EC50) of 34.8 ng/mL.

What is called EC50 is the concentration that produces a half-maximal response.
